Measured values: publication PMC11122685, “An interaction network in the polymerase active site is a prerequisite for Watson-Crick base pairing in Pol γ”

Target: Pol gamma A R853A exo-;Pol gamma B deltaI4 (human;human?, UniProt P54098;Q9UHN1 1-1239;1-485, D198A;E200A;R853A|del136-182)
Experiment: X-ray crystal structure (3.4 A); dCTP (2 mM), 10 mM CaCl2; ternary complex, dCTP not paired with template dG; Crystal: 63.5 uM protein, 114.3 uM DNA, 10 mM CaCl2, 2 mM dCTP; well 100 mM MES pH 6.0, 150 mM NaCl, 10 mM CaCl2, 50 mM BME, 3% PEG-8000, 1-8% sucrose, 2% Jeffa
Details: protein: recombinant;recombinant; (Ni-NTA purified); copies: 1;2; 5' overhang 4 nt (template strand), recessed primer 3' end

Sequence of Pol gamma A R853A exo-;Pol gamma B deltaI4 (P54098 whole entry D198A/E200A/R853A, chain 1 of 2): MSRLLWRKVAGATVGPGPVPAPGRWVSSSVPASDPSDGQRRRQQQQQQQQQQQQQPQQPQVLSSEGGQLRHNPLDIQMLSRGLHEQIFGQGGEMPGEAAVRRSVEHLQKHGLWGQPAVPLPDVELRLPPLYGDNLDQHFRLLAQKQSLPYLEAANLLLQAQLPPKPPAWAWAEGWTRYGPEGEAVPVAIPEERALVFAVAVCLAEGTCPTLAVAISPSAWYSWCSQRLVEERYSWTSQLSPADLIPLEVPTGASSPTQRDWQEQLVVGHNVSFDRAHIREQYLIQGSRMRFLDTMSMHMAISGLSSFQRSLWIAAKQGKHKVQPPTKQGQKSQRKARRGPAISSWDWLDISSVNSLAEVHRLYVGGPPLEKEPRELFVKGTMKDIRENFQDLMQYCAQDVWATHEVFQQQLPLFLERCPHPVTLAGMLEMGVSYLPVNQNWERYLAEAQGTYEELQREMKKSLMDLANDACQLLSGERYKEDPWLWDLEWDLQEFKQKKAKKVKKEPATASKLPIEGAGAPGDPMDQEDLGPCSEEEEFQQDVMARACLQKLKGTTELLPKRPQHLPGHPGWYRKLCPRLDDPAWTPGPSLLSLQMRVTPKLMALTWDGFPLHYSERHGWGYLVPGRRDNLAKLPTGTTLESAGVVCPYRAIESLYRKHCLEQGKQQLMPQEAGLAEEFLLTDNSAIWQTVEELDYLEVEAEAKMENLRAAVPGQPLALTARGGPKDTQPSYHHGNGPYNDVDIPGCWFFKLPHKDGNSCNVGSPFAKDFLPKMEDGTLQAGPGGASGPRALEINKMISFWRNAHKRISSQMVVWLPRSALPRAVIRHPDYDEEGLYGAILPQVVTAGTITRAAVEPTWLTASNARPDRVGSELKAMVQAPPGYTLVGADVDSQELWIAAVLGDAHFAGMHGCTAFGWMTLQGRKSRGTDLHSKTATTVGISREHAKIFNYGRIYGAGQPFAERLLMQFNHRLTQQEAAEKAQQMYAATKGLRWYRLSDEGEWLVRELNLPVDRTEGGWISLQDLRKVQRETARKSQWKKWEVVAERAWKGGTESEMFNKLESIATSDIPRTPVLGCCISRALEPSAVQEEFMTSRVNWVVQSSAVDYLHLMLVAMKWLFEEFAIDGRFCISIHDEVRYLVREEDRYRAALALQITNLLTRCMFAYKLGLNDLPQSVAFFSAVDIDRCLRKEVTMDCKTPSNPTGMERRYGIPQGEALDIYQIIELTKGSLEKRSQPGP
Sequence of Pol gamma A R853A exo-;Pol gamma B deltaI4 (Q9UHN1 other isoform, or with tags, fused parts or gaps D198A;E200A;R853A|del136-182 | R853A R853A, chain 2 of 2): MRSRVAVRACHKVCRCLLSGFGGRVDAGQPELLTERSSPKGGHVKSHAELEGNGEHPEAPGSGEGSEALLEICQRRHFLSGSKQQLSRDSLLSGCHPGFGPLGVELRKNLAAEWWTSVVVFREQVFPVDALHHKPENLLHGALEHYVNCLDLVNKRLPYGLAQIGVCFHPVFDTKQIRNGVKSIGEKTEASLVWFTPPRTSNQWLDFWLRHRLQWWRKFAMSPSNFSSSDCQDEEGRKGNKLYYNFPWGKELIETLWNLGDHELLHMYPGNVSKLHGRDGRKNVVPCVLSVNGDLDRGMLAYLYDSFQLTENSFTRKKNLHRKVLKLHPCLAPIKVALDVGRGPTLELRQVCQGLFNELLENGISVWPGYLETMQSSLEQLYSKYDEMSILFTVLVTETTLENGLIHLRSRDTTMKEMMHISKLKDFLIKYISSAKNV

B1: 24-nt/28-nt primer/template, ddC-terminated primer (crystal) (dsDNA)
DNA 1: CGAAAACGACGGCCAGTGCCATAC
DNA 2: CGAGGTATGGCACTGGCCGTCGTTTTCG
modifications: 2',3'-dideoxyC at primer 3' end (position 24 of strand 1)
B1: binds.
